According to US20190224101A1:

B1: mono-scFv-phage No. 6 (scFv, V domains shown)
VH: QVQLVESGGGVVRPGGSLRLSCTASGFTFDDHGMSWVRQAPGKGLEWVSTINLNGGSTAYADSVKGRFTISRDNAKNSLYLQMNSLRAEDTAVYYCSTRHLHHWGQGTLVTVSS
VL: DIVMTQTPLSSPVTLGQPASISCRSSQSLVHSNGNTYLTWLQQRPGQPPRLLIHKISNRFSGVPDRFSGSGAGTDFTLKISRVEAEDVGVYYCVQAKQFPLTFGQGTRLEIK
B2: mono-scFv-phage No. 8 (scFv, V domains shown)
VH: QVQLVQSGGGVVQPGGSLRLSCAASGFSFNDYAMHWVRQVPGKGLEWVSSISWNSRSTVYAASVEGRFSISRDNSKNSLYLQMNSLRAEDAAVYYCTTDLGVVPAAIYAFDIWGQGTMVTVSS
VL: DIQMTQSPSVMSASVGDRVNITCRASQGITNWLAWYQQKPGKAPKLLISAASSLQSGVPSRFSGSGSGTDFTLTISSLQPDDFATYYCQQTATFQITFGQGTRLDIK
B3: mono-scFv-phage No. 10 (scFv, V domains shown)
VH: QVQLVESGGGLIQPGGSLRLSCVASGFTVSSSFMSWVRLAPGKGLEWVALAYSGGNTYYADSVKGRFTVSRDDSSNTLYLQMNSLRAEDTAVYYCSCEGKAVSGSRDLHFEFWSPGTLVTVSS
VL: SYELTQAPSLSVSPGQTANIICSGDNLRTKYVSWYQQKPGQAPVLVIYNDNDRPSGIPERFSGTNSGNTAALTISRVEAGDEADYYCQVWDSSSDHLIFGGGTKLTVL
B4: mono-scFv-phage No. 3 (scFv, V domains shown)
VH: QMQLVQSGAEVKKPGASVKVSCKASGYTFTDYYIHWVRQAPGQGLEWMGWINPNSGAPEFAQRFQGRVSMTRDASINTTYMELSGLRSEDTAVYYCVKGLEHAAGSAIFDRWGQGTMVTVSS
VL: QTVVTQEPSFSVSPGGTVTLTCGLTSGSVSTSHFPSWYQQTPGQAPRTLIYFKDTRSSGVPDRFSGSILGNKAALTITGAQADDESDYYCALSMGSGIWVFGGGTKLTVL
B5: 6F antibody (antibody, V domains shown)
VH: B1 VH
VL: B1 VL
B6: 8F antibody (antibody, V domains shown)
VH: B2 VH
VL: B2 VL
B7: 10F antibody (antibody, V domains shown)
VH: B3 VH
VL: B3 VL
B8: 3F antibody (antibody, V domains shown)
VH: B4 VH
VL: B4 VL

The binders below were run against Propionibacterium acnes (P. acnes) whole cells, surface antigen not identified (Propionibacterium acnes) (assay: mono-scFv-phage ELISA on whole P. acnes).
In the case of B1, the ELISA O.D. value is reported as 2.22 O.D and the O.D. 450 nm is reported as 1.95 O.D. 450 nm. In the case of B2, the ELISA O.D. value is reported as 2.08 O.D and the O.D. 450 nm is reported as 1.82 O.D. 450 nm. Work on B3 yielded an ELISA O.D. value of 2.07 O.D and an O.D. 450 nm of 1.81 O.D. 450 nm. Work on B4 yielded an ELISA O.D. value of 3.62 O.D and an O.D. 450 nm of 3.36 O.D. 450 nm.

The binders below were run against control cells (Staphylococcus epidermidis), whole cells (Staphylococcus epidermidis) (assay: mono-scFv-phage ELISA on control cells).
For B1, the O.D. 450 nm was 0.0041 O.D. 450 nm. For B2, the O.D. 450 nm was 0.0044 O.D. 450 nm. B3 showed an O.D. 450 nm of 0.0023 O.D. 450 nm. B4 was tested, and the O.D. 450 nm was 0.0002 O.D. 450 nm.

What follows are binders tested against control cells (Staphylococcus epidermidis), whole cells (Staphylococcus epidermidis) (assay: IgG ELISA on control cells).
In the case of B5, the O.D. 450 nm is reported as 0.0114 O.D. 450 nm. Binder B6 has an O.D. 450 nm of -0.0268 O.D. 450 nm. Binder B7 has an O.D. 450 nm of -0.0248 O.D. 450 nm. Work on B8 yielded an O.D. 450 nm of -0.0105 O.D. 450 nm.

These binders were tested against Propionibacterium acnes (P. acnes) whole cells, surface antigen not identified (Propionibacterium acnes) (assay: IgG ELISA on whole P. acnes).
Binder B5 has an O.D. 450 nm of 2.36 O.D. 450 nm. With B6 the O.D. 450 nm was 2.32 O.D. 450 nm. B7 gave an O.D. 450 nm of 0.00605 O.D. 450 nm. B8 gave an O.D. 450 nm of 0.0149 O.D. 450 nm.
